In paper PMC4493011, “The Cold Shock Domain of YB-1 Segregates RNA from DNA by Non-Bonded Interactions”:

Columns and labels:
Settings in all cases: protein: recombinant; single strand
YB-1 (full-length) [1] = biological target: T1, YB-1 (full-length) (human, UniProt P67809 1-324); assay: EMSA; apparent Kd, protein concentration at 50% saturation; 7 pmol DNA in 10 ul; 10 mM Hepes-KOH pH 7.6, 100 mM KCl, 30 C, 15 min, 10 ul; 8% native PAGE in TBE, silver staining
[2] = biological target: T2, YB-1 cold shock domain (CSD) (human, UniProt P67809 51-129); assay: as above
YB-1 (full-length) [3] = biological target: T1, YB-1 (full-length); assay: EMSA; apparent Kd, protein concentration at 50% saturation; 7 pmol RNA in 10 ul; 10 mM Hepes-KOH pH 7.6, 100 mM KCl, 30 C, 15 min, 10 ul; 8% native PAGE in TBE, silver staining
[4] = biological target: T2, YB-1 cold shock domain (CSD); assay: as above

T2 sequence (P67809 51-129): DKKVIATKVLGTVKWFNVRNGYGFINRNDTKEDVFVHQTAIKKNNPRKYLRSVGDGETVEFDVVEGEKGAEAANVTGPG
T1 sequence (P67809 whole entry, the tested form may be a part): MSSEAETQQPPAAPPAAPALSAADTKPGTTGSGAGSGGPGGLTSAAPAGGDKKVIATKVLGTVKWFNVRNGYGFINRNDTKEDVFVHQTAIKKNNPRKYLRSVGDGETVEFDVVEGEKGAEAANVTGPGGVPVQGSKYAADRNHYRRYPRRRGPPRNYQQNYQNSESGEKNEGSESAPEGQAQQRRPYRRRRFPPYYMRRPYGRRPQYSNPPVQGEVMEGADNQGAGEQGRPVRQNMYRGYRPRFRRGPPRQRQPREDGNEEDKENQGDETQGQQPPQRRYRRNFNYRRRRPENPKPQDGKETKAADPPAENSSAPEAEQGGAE

Binder | Kd (YB-1 (full-length) [1]) [µM] | Kd [2] [µM] | Kd (YB-1 (full-length) [3]) [µM] | Kd [4] [µM]
AGGATGGGTGAGTGAGGTAG (ssDNA) [G-rich DNA 20-mer] | 0.6 | 6 |  | 
AGGAUGGGUGAGUGAGGUAG (ssRNA) [G-rich RNA 20-mer] |  |  | 0.3 | 2.5
